Reference: paper PMC8167812 (Cell reports, 2021)

Molecular target: Histone H3 tail peptide H3K9MK14C with a C-terminal biotinylated lysine (fission yeast, C-terminal biotinylated lysine)
Assay: BLI

B1: Clr4 SET domain (residue 190–490) (domain or fragment)
chain: NPSKLDSYTHLSFYEKRELFRKKLREIEGPEVTLVNEVDDEPCPSLDFQFISQYRLTQGVIPPDPNFQSGCNCSSLGGCDLNNPSRCECLDDLDEPTHFAYDAQGRVRADTGAVIYECNSFCSCSMECPNRVVQRGRTLPLEIFKTKEKGWGVRSLRFAPAGTFITCYLGEVITSAEAAKRDKNYDDDGITYLFDLDMFDDASEYTVDAQNYGDVSRFFNHSCSPNIAIYSAVRNHGFRTIYDLAFFAIKDIQPLEELTFDYAGAKDFSPVQSQKSQQNRISKLRRQCKCGSANCRGWLFG
t1/2: 9.6 s
